From publication PMC4809600, “The Influence of Chronic Wound Extracts on Inflammatory Cytokine and Histatin Stability” (PLoS ONE, 2016)

Experiments:
[1] = Stability in PBS, capillary zone electrophoresis; type: physicochemical; details: 1 mg/ml in PBS mixed 1:1 with PBS, 37°C, 96 h, CZE, UV 200 nm, ratio to imidazole internal standard, 0 h = 100%
Method: To determine the stability of the different peptides in CWE, histatins and cytokines were dissolved in PBS at 1 mg/ml. Histatins and cytokines were incubated in a 1:1 ratio with (i) PBS, (ii) CWE in PBS, or (iii) CWE in PBS containing PIC, in a total volume of 25 μl. Imidazole (Sigma-Aldrich) was added as an internal standard, with a final concentration of 100 μg/ml. The mixtures were incubated at 37°C, and samples were taken at 0, 24, 48, 72 and 96 h. For histatins containing mixtures, additional samples were taken after 2, 4, 8 and 16 h of incubation.
The samples were analyzed with a BioFocus 2000 capillary zone electrophoresis system (Bio-Rad Laboratories, Hercules, CA, USA) equipped with an uncoated fused-silica capillary of internal diameter 50 μm and a length of 24 cm. Samples were loaded by pressure injection (5 psi/sec). Separation was performed at 10 kV (cathode at the detector side) at 20°C using 0.1 M phosphate buffer (pH 2.5) as electrolyte and monitored continuously at 200 nm. Peaks were quantified with the BioFocus Integrator software. In order to quantify the percentage of intact peptides remaining after incubation with CWE, the ratios of histatins, rhIL-6 or rhCXCL8 to internal standard was set at 100% at 0h, and the ratios at the other incubation time points were related to this.

[2] = Stability in chronic wound extracts (CWE), capillary zone electrophoresis; type: in vitro ADME, human; details: 37°C, CZE, 0 h = 100%; for Percentage intact, CWE 24h / Percentage intact, CWE 48h / Percentage intact, CWE 72h / Percentage intact, CWE 96h: 1 mg/ml in PBS mixed 1:1 with CWE (1 mg/ml protein, pool of 5 donors) in PBS, UV 200 nm, ratio to imidazole; for Starting material remaining intact after 96 h in CWE: 1 mg/ml in PBS mixed 1:1 with CWE (1 mg/ml protein, pools of 5 donors), mean of 3 independent experiments
Method in brief: (§1)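 Peptides or cytokines (1 mg/ml stock) mixed 1:1 with PBS or pooled chronic-wound extract (1 mg/ml protein, three pools of five donors), ±protease inhibitor cocktail, at 37 °C for up to 96 h. Analyzed by capillary zone electrophoresis (pH 2.5 phosphate, 200 nm), with peak ratio to imidazole standard relative to 0 h as % intact.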

[3] = Stability in CWE with protease inhibitor cocktail (PIC), capillary zone electrophoresis; type: in vitro ADME, human; details: 1 mg/ml in PBS mixed 1:1 with CWE (1 mg/ml protein, pool of 5 donors) in PBS containing PIC (final 1:140 v/v), 37°C, CZE, ratio to imidazole, 0 h = 100%
Method in brief: as §1

Question: Which “Percentage intact, PBS 96h” value ([1]; experiment 1 of 3) does the source give for “CXCL8 CS: rhCXCL8 from Cell Systems, Cat nr. CS-C1069, CXCL8 (1–77)” here?
Answer: The value was 91.5892%.

Question: What about the “Percentage intact, PBS 96h” value ([1]; experiment 2 of 3) of the same substance?
Answer: Its value is 91.4833%.

Question: What about the “Percentage intact, PBS 96h” value ([1]; experiment 3 of 3) of the same substance?
Answer: Its value is 87.1812%.

Question: What about the “Percentage intact, CWE 24h” value ([2]; experiment 1 of 3) of the same substance?
Answer: The value was 88.8666%.

Question: What about the “Percentage intact, CWE 24h” value ([2]; experiment 2 of 3) of the same substance?
Answer: Its value is 92.8064%.

Question: And the “Percentage intact, CWE 24h” value ([2]; experiment 3 of 3)?
Answer: Its value is 96.6818%.

Question: And the “Percentage intact, CWE 48h” value ([2]; experiment 1 of 3)?
Answer: Its value is 87.3559%.

Question: And the “Percentage intact, CWE 48h” value ([2]; experiment 2 of 3)?
Answer: Its value is 86.1407%.

Question: What about the “Percentage intact, CWE 48h” value ([2]; experiment 3 of 3) of the same substance?
Answer: The value was 89.0325%.

Question: And the “Percentage intact, CWE 72h” value ([2]; experiment 1 of 3)?
Answer: Its value is 83.3251%.

Question: What about the “Percentage intact, CWE 72h” value ([2]; experiment 2 of 3) of the same substance?
Answer: The value was 83.9414%.

Question: And the “Percentage intact, CWE 72h” value ([2]; experiment 3 of 3)?
Answer: Its value is 84.6704%.

Question: And the “Percentage intact, CWE 96h” value ([2]; experiment 1 of 3)?
Answer: Its value is 78.0414%.

Question: And the “Percentage intact, CWE 96h” value ([2]; experiment 2 of 3)?
Answer: Its value is 80.0263%.

Question: And the “Percentage intact, CWE 96h” value ([2]; experiment 3 of 3)?
Answer: Its value is 80.2041%.

Question: And the “Starting material remaining intact after 96 h in CWE” value [2]?
Answer: Its value is 79%.

Question: What about the “Percentage intact, CWE + PIC 24h” value ([3]; experiment 1 of 3) of the same substance?
Answer: The value was 104.747%.

Question: And the “Percentage intact, CWE + PIC 24h” value ([3]; experiment 2 of 3)?
Answer: Its value is 99.4146%.

Question: And the “Percentage intact, CWE + PIC 24h” value ([3]; experiment 3 of 3)?
Answer: Its value is 99.4369%.

Question: What about the “Percentage intact, CWE + PIC 48h” value ([3]; experiment 1 of 3) of the same substance?
Answer: Its value is 98.6704%.

Question: And the “Percentage intact, CWE + PIC 48h” value ([3]; experiment 2 of 3)?
Answer: The value was 94.4506%.

Question: And the “Percentage intact, CWE + PIC 48h” value ([3]; experiment 3 of 3)?
Answer: The value was 91.0713%.

Question: And the “Percentage intact, CWE + PIC 72h” value ([3]; experiment 1 of 3)?
Answer: Its value is 96.1244%.

Question: And the “Percentage intact, CWE + PIC 72h” value ([3]; experiment 2 of 3)?
Answer: The value was 88.7106%.

Question: What about the “Percentage intact, CWE + PIC 72h” value ([3]; experiment 3 of 3) of the same substance?
Answer: Its value is 87.6839%.

Question: And the “Percentage intact, CWE + PIC 96h” value ([3]; experiment 1 of 3)?
Answer: Its value is 87.7388%.

Question: And the “Percentage intact, CWE + PIC 96h” value ([3]; experiment 2 of 3)?
Answer: Its value is 86.0248%.

Question: And the “Percentage intact, CWE + PIC 96h” value ([3]; experiment 3 of 3)?
Answer: Its value is 85.3459%.

Question: With “IL-6 CS: rhIL-6 from Cell Systems Biotechnology, Cat nr. CS-C1066” as the substance, how does the “Percentage intact, PBS 96h” value ([1]; experiment 1 of 3) read?
Answer: Its value is 91.7071%.

Question: What about the “Percentage intact, PBS 96h” value ([1]; experiment 2 of 3) of the same substance?
Answer: Its value is 94.938%.

Question: What about the “Percentage intact, PBS 96h” value ([1]; experiment 3 of 3) of the same substance?
Answer: The value was 88.4799%.

Question: And the “Percentage intact, CWE 24h” value ([2]; experiment 1 of 3)?
Answer: Its value is 87.5606%.

Question: What about the “Percentage intact, CWE 24h” value ([2]; experiment 2 of 3) of the same substance?
Answer: Its value is 96.7909%.

Question: What about the “Percentage intact, CWE 24h” value ([2]; experiment 3 of 3) of the same substance?
Answer: Its value is 93.0609%.

Question: What about the “Percentage intact, CWE 48h” value ([2]; experiment 1 of 3) of the same substance?
Answer: The value was 82.5586%.

Question: And the “Percentage intact, CWE 48h” value ([2]; experiment 2 of 3)?
Answer: Its value is 90.261%.

Question: And the “Percentage intact, CWE 48h” value ([2]; experiment 3 of 3)?
Answer: The value was 82.6368%.

Question: And the “Percentage intact, CWE 72h” value ([2]; experiment 1 of 3)?
Answer: The value was 76.7459%.

Question: What about the “Percentage intact, CWE 72h” value ([2]; experiment 2 of 3) of the same substance?
Answer: Its value is 64.558%.

Question: What about the “Percentage intact, CWE 72h” value ([2]; experiment 3 of 3) of the same substance?
Answer: Its value is 69.7531%.

Question: What about the “Percentage intact, CWE 96h” value ([2]; experiment 1 of 3) of the same substance?
Answer: Its value is 67.9184%.

Question: And the “Percentage intact, CWE 96h” value ([2]; experiment 2 of 3)?
Answer: The value was 56.1934%.

Question: What about the “Percentage intact, CWE 96h” value ([2]; experiment 3 of 3) of the same substance?
Answer: The value was 44.5849%.

Question: And the “Starting material remaining intact after 96 h in CWE” value [2]?
Answer: The value was 56%.

Question: And the “Percentage intact, CWE + PIC 24h” value ([3]; experiment 1 of 3)?
Answer: The value was 96.0006%.

Question: What about the “Percentage intact, CWE + PIC 24h” value ([3]; experiment 2 of 3) of the same substance?
Answer: Its value is 88.559%.

Question: And the “Percentage intact, CWE + PIC 24h” value ([3]; experiment 3 of 3)?
Answer: Its value is 95.4415%.

Question: What about the “Percentage intact, CWE + PIC 48h” value ([3]; experiment 1 of 3) of the same substance?
Answer: The value was 84.6802%.

Question: And the “Percentage intact, CWE + PIC 48h” value ([3]; experiment 2 of 3)?
Answer: The value was 88.7813%.

Question: And the “Percentage intact, CWE + PIC 48h” value ([3]; experiment 3 of 3)?
Answer: The value was 87.103%.

Question: And the “Percentage intact, CWE + PIC 72h” value ([3]; experiment 1 of 3)?
Answer: The value was 88.9677%.

Question: What about the “Percentage intact, CWE + PIC 72h” value ([3]; experiment 2 of 3) of the same substance?
Answer: The value was 86.585%.

Question: And the “Percentage intact, CWE + PIC 72h” value ([3]; experiment 3 of 3)?
Answer: Its value is 83.9413%.

Question: And the “Percentage intact, CWE + PIC 96h” value ([3]; experiment 1 of 3)?
Answer: Its value is 78.2271%.

Question: And the “Percentage intact, CWE + PIC 96h” value ([3]; experiment 2 of 3)?
Answer: Its value is 83.1651%.

Question: What about the “Percentage intact, CWE + PIC 96h” value ([3]; experiment 3 of 3) of the same substance?
Answer: The value was 79.7008%.
